# Results taken from publication PMC3326523, “Histone Recognition and Large-Scale Structural Analysis of the Human Bromodomain Family” (Cell, 2012).
# Experiments:
# [1] = target: CECR2 bromodomain (human) (UniProt Q9BXF3); test: ITC; peptide (mM stock) titrated into bromodomain (about 50 μM), by the concentrations in the tables; 10 or 15°C, 50 mM HEPES pH 7.5, 150 mM NaCl; single binding site model
# [2] = target: TAF1(1/2), tandem bromodomains of TAF1 (human) (UniProt P21675); test: as above
# [3] = target: TAF1(2), second bromodomain of TAF1 (human) (UniProt P21675); test: as above
# PCAF bromodomain (human) = PCAF bromodomain (human) (UniProt Q92831); test: as above
# [4] = target: BAZ2B bromodomain (human) (UniProt Q9UIF8); test: as above
# [5] = target: SMARCA2 bromodomain (human) (UniProt P51531); test: as above
# [6] = target: CREBBP bromodomain (human) (UniProt Q92793); test: as above
# [7] = target: BRD3(1), first bromodomain of BRD3 (human) (UniProt Q15059); test: as above
# [8] = target: KIAA1240 bromodomain (human) (UniProt Q9ULI0); test: as above
# [9] = target: BRD3(1), first bromodomain of BRD3 (human) (UniProt Q15059); test: ITC; as a1; rows with N of about 0.5 or 0.25: two or more bromodomains on one peptide, apparent binding constants, events not deconvoluted
# [10] = target: BRD3(2), second bromodomain of BRD3 (human) (UniProt Q15059); test: as above
# [11] = target: H3K14ac peptide (ITC) (human); test: ITC; VP-ITC or ITC200, 10 or 15°C, 50 mM HEPES pH 7.5, 150 mM NaCl; in most cases single binding site model
# [12] = target: H3pS10K14acK18ac peptide (ITC) (human); test: as above
# [13] = target: WDR9 second bromodomain, WDR9(2) (UniProt Q9NSI6); test: SPOT peptide array, His6-BRD overlay; details: reference: H3K4acK9ac peptide; sites T3
# EP300 bromodomain = EP300 bromodomain (UniProt Q09472); test: SPOT peptide array, His6-BRD overlay; details: reference: H3K4acK9ac peptide; sites T3
# Chain of TAF1(1/2), tandem bromodomains of TAF1 (human) (P21675 whole entry): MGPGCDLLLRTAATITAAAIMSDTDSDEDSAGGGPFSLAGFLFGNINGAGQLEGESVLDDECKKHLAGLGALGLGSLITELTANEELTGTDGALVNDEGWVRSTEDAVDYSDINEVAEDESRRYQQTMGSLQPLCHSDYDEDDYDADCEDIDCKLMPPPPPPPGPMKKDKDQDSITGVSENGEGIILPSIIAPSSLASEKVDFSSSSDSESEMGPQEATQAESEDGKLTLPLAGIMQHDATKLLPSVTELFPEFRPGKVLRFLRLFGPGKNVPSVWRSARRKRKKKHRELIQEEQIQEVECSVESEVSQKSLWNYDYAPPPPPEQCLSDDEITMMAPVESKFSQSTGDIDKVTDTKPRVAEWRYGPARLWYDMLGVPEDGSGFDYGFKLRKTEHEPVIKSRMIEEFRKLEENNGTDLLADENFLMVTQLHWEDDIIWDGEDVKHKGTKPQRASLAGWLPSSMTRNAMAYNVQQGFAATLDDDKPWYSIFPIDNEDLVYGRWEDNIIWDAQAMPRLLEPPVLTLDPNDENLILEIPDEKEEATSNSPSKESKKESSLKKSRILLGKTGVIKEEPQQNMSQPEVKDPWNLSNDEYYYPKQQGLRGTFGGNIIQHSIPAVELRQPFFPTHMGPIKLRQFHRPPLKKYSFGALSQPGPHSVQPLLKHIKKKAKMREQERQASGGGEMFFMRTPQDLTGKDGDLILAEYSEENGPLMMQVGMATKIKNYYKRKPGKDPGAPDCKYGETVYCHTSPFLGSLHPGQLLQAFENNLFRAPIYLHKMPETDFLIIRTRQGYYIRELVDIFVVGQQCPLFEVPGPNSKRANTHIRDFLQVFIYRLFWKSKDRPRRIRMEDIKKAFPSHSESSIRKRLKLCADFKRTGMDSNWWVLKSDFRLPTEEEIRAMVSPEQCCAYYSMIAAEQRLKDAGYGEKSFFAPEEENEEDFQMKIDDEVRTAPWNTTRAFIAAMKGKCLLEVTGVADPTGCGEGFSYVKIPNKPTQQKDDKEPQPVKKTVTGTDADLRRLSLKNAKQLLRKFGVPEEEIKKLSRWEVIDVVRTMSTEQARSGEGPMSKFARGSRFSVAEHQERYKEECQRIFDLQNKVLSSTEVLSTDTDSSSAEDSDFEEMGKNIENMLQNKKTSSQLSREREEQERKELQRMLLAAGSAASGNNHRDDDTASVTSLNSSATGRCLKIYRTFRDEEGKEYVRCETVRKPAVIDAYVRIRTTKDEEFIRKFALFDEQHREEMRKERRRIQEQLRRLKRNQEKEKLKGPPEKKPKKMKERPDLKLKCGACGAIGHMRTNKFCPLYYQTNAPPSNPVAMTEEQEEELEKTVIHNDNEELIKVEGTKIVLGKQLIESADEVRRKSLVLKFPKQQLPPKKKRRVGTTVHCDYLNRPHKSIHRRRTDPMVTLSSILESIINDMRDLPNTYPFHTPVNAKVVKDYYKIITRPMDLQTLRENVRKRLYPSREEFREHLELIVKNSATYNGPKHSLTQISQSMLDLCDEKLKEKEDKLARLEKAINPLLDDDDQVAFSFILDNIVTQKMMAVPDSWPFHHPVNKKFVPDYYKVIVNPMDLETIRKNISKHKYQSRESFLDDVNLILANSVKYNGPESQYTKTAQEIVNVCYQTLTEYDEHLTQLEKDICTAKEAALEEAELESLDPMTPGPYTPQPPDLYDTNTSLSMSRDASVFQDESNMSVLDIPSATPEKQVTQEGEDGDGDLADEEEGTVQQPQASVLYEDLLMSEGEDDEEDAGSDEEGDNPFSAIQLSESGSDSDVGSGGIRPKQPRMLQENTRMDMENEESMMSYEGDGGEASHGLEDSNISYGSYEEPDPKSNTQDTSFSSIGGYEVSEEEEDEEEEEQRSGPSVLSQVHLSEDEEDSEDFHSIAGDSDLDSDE
# Chain of BRD3(1), first bromodomain of BRD3 (human) (Q15059 whole entry): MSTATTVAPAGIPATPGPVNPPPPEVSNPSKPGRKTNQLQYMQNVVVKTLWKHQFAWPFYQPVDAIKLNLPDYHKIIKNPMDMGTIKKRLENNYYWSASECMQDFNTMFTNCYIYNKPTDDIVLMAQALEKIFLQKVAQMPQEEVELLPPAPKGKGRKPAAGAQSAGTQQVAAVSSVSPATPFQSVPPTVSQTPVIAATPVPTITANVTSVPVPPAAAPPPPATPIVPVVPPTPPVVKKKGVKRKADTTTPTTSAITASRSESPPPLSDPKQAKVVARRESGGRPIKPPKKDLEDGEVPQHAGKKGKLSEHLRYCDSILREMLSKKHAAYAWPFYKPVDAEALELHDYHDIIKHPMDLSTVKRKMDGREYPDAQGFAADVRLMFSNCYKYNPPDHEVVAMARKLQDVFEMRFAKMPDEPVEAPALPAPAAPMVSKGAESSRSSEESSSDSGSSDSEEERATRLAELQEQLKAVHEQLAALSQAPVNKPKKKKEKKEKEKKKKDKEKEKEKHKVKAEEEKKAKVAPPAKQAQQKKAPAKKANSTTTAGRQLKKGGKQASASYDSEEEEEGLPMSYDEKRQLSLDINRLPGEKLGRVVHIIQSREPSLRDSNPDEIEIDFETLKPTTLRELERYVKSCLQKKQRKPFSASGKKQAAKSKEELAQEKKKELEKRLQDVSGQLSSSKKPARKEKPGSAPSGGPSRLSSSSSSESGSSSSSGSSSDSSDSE
# Chain of CECR2 bromodomain (human) (Q9BXF3 424-538): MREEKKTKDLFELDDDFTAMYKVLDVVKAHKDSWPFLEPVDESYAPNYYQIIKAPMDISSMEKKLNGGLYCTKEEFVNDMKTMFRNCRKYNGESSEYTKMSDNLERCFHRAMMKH
# Chain of BAZ2B bromodomain (human) (Q9UIF8 whole entry): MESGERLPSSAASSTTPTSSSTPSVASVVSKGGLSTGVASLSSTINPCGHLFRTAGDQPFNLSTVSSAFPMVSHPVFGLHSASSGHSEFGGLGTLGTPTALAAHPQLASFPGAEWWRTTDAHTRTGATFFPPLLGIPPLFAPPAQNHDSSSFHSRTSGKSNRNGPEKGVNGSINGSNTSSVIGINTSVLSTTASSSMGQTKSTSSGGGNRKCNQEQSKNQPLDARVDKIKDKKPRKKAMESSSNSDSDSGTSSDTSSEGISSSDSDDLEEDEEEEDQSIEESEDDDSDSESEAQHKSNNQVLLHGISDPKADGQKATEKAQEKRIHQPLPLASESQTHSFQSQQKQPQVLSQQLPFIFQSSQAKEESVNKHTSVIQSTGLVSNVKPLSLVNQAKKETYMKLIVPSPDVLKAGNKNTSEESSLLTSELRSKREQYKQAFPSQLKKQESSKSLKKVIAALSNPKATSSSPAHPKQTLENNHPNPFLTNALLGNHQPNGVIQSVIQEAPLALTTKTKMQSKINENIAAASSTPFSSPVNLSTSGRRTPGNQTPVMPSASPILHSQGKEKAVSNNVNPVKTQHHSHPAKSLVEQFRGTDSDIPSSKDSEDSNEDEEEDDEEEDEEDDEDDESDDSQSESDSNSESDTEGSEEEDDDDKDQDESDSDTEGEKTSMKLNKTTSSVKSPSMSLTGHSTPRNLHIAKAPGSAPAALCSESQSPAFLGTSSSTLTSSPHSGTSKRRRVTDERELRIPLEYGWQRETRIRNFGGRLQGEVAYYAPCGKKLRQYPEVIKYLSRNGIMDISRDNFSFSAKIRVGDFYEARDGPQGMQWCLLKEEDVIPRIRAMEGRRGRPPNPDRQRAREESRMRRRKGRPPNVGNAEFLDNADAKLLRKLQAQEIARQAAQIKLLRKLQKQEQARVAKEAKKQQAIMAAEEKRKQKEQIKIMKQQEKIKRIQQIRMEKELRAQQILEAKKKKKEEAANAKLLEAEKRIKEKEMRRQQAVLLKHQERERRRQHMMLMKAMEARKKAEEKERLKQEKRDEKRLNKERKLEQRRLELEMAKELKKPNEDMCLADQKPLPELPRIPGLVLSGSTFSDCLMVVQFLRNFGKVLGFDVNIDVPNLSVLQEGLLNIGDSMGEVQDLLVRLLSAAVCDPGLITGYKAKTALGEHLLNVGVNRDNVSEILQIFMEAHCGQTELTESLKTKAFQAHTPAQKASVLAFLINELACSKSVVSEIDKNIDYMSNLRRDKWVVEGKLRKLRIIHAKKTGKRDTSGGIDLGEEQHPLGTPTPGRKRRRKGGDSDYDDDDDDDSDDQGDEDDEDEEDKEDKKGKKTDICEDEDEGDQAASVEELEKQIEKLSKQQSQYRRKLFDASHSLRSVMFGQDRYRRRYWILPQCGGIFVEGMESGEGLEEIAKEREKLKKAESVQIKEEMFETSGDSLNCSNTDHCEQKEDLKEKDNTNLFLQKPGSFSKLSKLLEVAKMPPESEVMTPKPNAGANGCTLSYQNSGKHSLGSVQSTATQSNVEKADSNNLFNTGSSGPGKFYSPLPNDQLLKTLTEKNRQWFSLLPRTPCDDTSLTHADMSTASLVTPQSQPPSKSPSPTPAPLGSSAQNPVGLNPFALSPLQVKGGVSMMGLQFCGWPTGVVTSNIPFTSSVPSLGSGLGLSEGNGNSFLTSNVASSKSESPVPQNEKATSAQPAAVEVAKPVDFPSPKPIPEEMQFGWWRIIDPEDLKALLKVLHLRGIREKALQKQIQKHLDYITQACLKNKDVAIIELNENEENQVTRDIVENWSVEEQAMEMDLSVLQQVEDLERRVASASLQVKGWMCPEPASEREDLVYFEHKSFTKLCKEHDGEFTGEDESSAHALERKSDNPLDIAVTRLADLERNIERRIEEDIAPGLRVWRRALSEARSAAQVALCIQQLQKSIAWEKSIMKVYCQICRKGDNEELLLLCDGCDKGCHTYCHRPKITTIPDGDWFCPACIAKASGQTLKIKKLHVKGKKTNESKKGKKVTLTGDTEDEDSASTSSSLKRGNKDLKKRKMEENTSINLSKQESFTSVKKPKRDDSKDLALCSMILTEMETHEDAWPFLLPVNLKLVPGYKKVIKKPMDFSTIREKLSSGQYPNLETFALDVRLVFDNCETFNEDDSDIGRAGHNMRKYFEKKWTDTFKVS
# Chain of bromodomain of CREBBP, tag removed (ITC) (Q92793 1081-1197): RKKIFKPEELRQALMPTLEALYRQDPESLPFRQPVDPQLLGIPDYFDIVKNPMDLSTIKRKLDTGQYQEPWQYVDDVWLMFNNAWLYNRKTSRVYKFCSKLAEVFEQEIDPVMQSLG
# Chain of TAF1(2), second bromodomain of TAF1 (human) (P21675 whole entry): as the sequence (P21675 whole entry) above
# Chain of CREBBP bromodomain (human) (Q92793 1081-1197): as the sequence (Q92793 1081-1197) above
substance,measurement,setting,value
H3K9 peptide KQTARKacSTGGKY,stoichiometry N,[1],1
H3K9/K14 peptide KQTARKacSTGGKacAPRKQY,Kd,[2],339 µM
same,stoichiometry N,[2],1.02
H3K9/S10/K14 peptide KQTARKacpSTGGKacAPRKQY,Kd,[2],150 µM
same,stoichiometry N,[2],1.05
H3K14 peptide KSTGGKacAPRKQY,stoichiometry N,[1],1
same,Kd,[3],306 µM
same,stoichiometry N,PCAF bromodomain (human),1.01
same,Kd,[4],7.6 µM
same,stoichiometry N,[4],1
same,stoichiometry N,[5],1.05
same,Kd,[2],179 µM
same,stoichiometry N,[2],1.01
H3S10K14K18 peptide KpSTGGKacAPRKacQY,stoichiometry N,[6],1
H4K8 peptide RGKGGKacGLGKGY,Kd,[7],211 µM
same,stoichiometry N,[7],1
same,stoichiometry N,[8],1
H4K12/16/20 peptide GKacGGAKacRHRKacV,Kd,[9],31.4 µM
same,stoichiometry N,[9],0.51
same,stoichiometry N,[10],0.5
"bromodomain of CREBBP, tag removed (ITC) (from UniProt Q92793 1081-1197) (domain or fragment)",Kd,[11],733 µM
same,Kd,[12],131 µM
histone H3 N-terminal tail (from UniProt P68431) H3 pT3K4acK9ac peptide,binding against the reference,[13],gained
same,binding against the reference,EP300 bromodomain,gained
